These are literature values, as cited in PMC4353500.

What is called Kd is the concentration at which binding is half-saturated.

In one data set the target is Cavβ2a (UniProt Q08289).
Another data set deals with Cavβ4b (UniProt D4A055).

Cavβ2a, sequence (Q08289 whole entry): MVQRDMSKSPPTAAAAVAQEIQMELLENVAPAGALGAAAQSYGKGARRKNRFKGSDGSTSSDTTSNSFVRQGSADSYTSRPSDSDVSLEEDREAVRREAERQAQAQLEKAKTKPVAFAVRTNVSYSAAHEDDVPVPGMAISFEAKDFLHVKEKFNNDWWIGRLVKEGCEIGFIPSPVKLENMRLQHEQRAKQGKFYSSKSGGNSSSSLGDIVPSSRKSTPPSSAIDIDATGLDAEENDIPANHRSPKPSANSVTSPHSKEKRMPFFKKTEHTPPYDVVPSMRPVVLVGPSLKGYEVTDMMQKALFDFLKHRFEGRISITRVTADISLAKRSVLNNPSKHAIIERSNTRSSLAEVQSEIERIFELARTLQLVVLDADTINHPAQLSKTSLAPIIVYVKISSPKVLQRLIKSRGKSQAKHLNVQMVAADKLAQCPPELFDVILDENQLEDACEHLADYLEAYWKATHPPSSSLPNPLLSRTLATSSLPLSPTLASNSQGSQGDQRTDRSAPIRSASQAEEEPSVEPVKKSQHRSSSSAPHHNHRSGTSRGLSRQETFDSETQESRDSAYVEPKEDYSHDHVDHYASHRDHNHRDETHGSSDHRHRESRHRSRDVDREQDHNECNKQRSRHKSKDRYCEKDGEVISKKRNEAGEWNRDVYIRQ

On to RIM1 CTD (from UniProt Q99NE5), for which the Kd with Cavβ2a and with Cavβ4b was 35 nM throughout.
